A short description of data set [1]: folding stability dG unfold from chymotrypsin proteolysis; higher = more stable. The procedure, abridged: (§1)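 Digests were run with trypsin and chymotrypsin at 11 concentrations in threefold dilutions, plus a no-protease condition, on designed mini-proteins in a PA-tagged cDNA display construct. The mini-proteins were under 80 residues, had no cysteine, and were kept only when AlphaFold2 dimer inter-PAE was above 15. After sequencing, Bayesian fitting of the counts gave K50, from which unfolding free energy was derived against a sequence-predicted unfolded-state K50 and a shared folded-state K50, per protease or combined.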

Data set [2] can be described thus: folding stability dG unfold from trypsin proteolysis; higher = more stable. Put shortly:
as §1

Data set [3] is described as follows: folding stability dG unfold (combined trypsin and chymotrypsin); higher = more stable. The procedure, abridged: as §1

Experimental findings from the supplement of paper PMC12764529 are described below.

± gives the half width of the 95% confidence interval.

Take “SAGGSAGGSAGMRPVTSVYYDPNTGRLYARFPDGVVANYELTPDGSVRLVSVAPAHPDLDSAGGSAGGSAGG [r17_61_TrMRF]”: the “folding stability dG unfold” value was 1.64 ± 0.059 kcal/mol in data set [1], 0.992 ± 0.04 kcal/mol in data set [2] and 1.42 ± 0.066 kcal/mol in data set [3].
Regarding “SAGGSAGGSAGMRTVEVKVVFKEGDKEFEKTITITLSPDDPSLEERAKEIAEKGIVVEIIRSAGGSAGGSAG [r3_30_JUSTAS]”, the “folding stability dG unfold” value in data set [1] was determined as 1.99 ± 0.12 kcal/mol; in data set [2], 1.62 ± 0.055 kcal/mol; in data set [3] it was 1.75 ± 0.15 kcal/mol.
On the same counts, the results for “SAGGSAGGSAGMRVVEVYRLPDGSYRIRFPDGTEVEVSPEELEEVARRLGADEVRVRPELSAGGSAGGSAGG [r11_312_JUSTAS]” are 4.201 ± 0.041 kcal/mol, 2.4 ± 0.056 kcal/mol and 3.78 ± 0.051 kcal/mol.
On the same counts, the results for “SAGGSAGGSAGMSALVLKVKIYYPKELFSPEEIEKIKSARIEVEPFLVEVKIDPETGELGSAGGSAGGSAGG [r17_310_TrMRF]” are 2.744 ± 0.021 kcal/mol, 1.84 ± 0.03 kcal/mol and 2.38 ± 0.061 kcal/mol.
For “SAGGSAGGSAGMTKIVIQYEVPPDKPPPDLEEIKKSLPGAENIEITREELPNGTWVYTVESAGGSAGGSAGG [r17_205_JUSTAS]”, the figures for the “folding stability dG unfold” value in data set [1], in data set [2] and in data set [3] were 0.405 ± 0.3 kcal/mol, 0.694 ± 0.19 kcal/mol and 0.593 ± 0.26 kcal/mol, respectively.
Taken in the same sequence, the figures for “SAGGSAGGSAGMTKTITVGDKKVNVTITPLPTPTTKVTITFPDGSTKTVTLPAGTPITLGSAGGSAGGSAGG [r11_525_JUSTAS]” were 0.176 ± 0.064 kcal/mol, 0.566 ± 0.045 kcal/mol and 0.326 ± 0.054 kcal/mol.
On to “SAGGSAGGSAGMTLEELAAADPDAVVPVKVPGTDTDVDVTVEPGAVRFTFPDGTTATVPASAGGSAGGSAGG [r17_128_JUSTAS]”, for which the “folding stability dG unfold” value in data set [1] was 0.112 ± 0.19 kcal/mol; in data set [2], -0.307 ± 0.11 kcal/mol; in data set [3], -0.046 ± 0.17 kcal/mol.
With “SAGGSAGGSAGMTPEEEVEYEIEVPDPNSDNLKTKIKLKFPVGTPEEEIKKKAEELAKKLSAGGSAGGSAGG [r11_516_JUSTAS]”, the entries for the “folding stability dG unfold” value in data set [1], in data set [2] and in data set [3] were 1.67 ± 0.093 kcal/mol, 1.67 ± 0.11 kcal/mol and 1.73 ± 0.19 kcal/mol, respectively.
Taken in the same sequence, the figures for “SAGGSAGGSAGMTPGPAPRPKVTVEPSLSEVPEDDSIVTTTTVTFPDTGETTSSTTTSSASAGGSAGGSAGG [r17_31_JUSTAS]” were 1.24 ± 0.051 kcal/mol, 0.337 ± 0.064 kcal/mol and 1 ± 0.084 kcal/mol.
On to “SAGGSAGGSAGMTPVEITDPNSDKTYTYDPEKKTLTKYYPGEGKTETFPLTSEEEAKKLLSAGGSAGGSAGG [r11_936_JUSTAS]”, for which the “folding stability dG unfold” value in data set [1] is 0.396 ± 0.069 kcal/mol; in data set [2], -0.536 ± 0.13 kcal/mol; in data set [3], 0.127 ± 0.08 kcal/mol.
For the sequence “SAGGSAGGSAGMTTLTVTVPAPPDALTPEDVVALLRPEYPDATITVTREGDTLVVTVTVASAGGSAGGSAGG [r11_7_JUSTAS]”, the entries for the “folding stability dG unfold” value in data set [1], in data set [2] and in data set [3] were 2.39 ± 0.033 kcal/mol, 3.31 ± 0.058 kcal/mol and 2.83 ± 0.047 kcal/mol, respectively.
Taken in the same sequence, the figures for “SAGGSAGGSAGMTVEVVKSVVPTKTNETVIVTTVTEVEPPTGKVTTLETKTVSTANPELLSAGGSAGGSAGG [r11_777_JUSTAS]” were -0.395 ± 0.11 kcal/mol, -0.755 ± 0.12 kcal/mol and -0.369 ± 0.23 kcal/mol.
Take “SAGGSAGGSAGMTYVYPGPDGKEYLAEVDPNIPGAEVTVTPPDTGETVTVPLSQVTEVPPSAGGSAGGSAGG [r11_822_JUSTAS]”: the figures for the “folding stability dG unfold” value in data set [1], in data set [2] and in data set [3] were -0.449 ± 0.18 kcal/mol, 0.56 ± 0.05 kcal/mol and 0.222 ± 0.063 kcal/mol, respectively.
On the same counts, the results for “SAGGSAGGSAGMVFLDPETRLLLVVHPNGEPELVLLEDGRAVLFHPSTGERREIPLAEIGSAGGSAGGSAGG [r11_297_TrMRF]” are 0.318 ± 0.12 kcal/mol, -0.195 ± 0.13 kcal/mol and 0.263 ± 0.12 kcal/mol.
Consider “SAGGSAGGSAGMVIVDPERGYIYIPFPEDIEPEEFIEANKIPEFDIEVLEIGENIPVIKLSAGGSAGGSAGG [r17_323_TrMRF]”, for which the entries for the “folding stability dG unfold” value in data set [1], in data set [2] and in data set [3] were -0.0485 ± 0.12 kcal/mol, 0.357 ± 0.047 kcal/mol and 0.209 ± 0.096 kcal/mol, respectively.
On to “SAGGSAGGSAGMVLLKSEEEAEELRKPNVSLSVTPVPPVEVSEGDPNALAYEVELKPPLESAGGSAGGSAGG [r11_168_JUSTAS]”, for which the entries for the “folding stability dG unfold” value in data set [1], in data set [2] and in data set [3] were 0.0585 ± 0.17 kcal/mol, 1.49 ± 0.053 kcal/mol and 0.86 ± 0.11 kcal/mol, respectively.
Taken in the same sequence, the figures for “SAGGSAGGSAGMVTIYADPDGSYTAHFPDGSSASYSSLEEVKANLKAKYPDVKDVVIEKTSAGGSAGGSAGG [r11_806_JUSTAS]” were 3.449 ± 0.034 kcal/mol, 2.17 ± 0.088 kcal/mol and 3.11 ± 0.084 kcal/mol.
Taken in the same sequence, the figures for “SAGGSAGGSAGMVTVGDTEVVIEKDPNSDKYTVTVTPADGTTETLTFDSEEEVERYIEAKSAGGSAGGSAGG [r11_238_JUSTAS]” were 1.7 ± 0.035 kcal/mol, 1.49 ± 0.051 kcal/mol and 1.61 ± 0.052 kcal/mol.
On the same counts, the results for “SAGGSAGGSAGMVVVERTSAPDPDKPTSYWFYTKTTFFPDGSVLSETKKFPSPAELEKATSAGGSAGGSAGG [r11_792_JUSTAS]” are 1.07 ± 0.12 kcal/mol, 0.793 ± 0.023 kcal/mol and 0.992 ± 0.07 kcal/mol.
Take “SAGGSAGGSAGMVYITKGKDGIWYEAEVDPTKPGAKVKVRHPLTGKEEEITPAEVVAVPPSAGGSAGGSAGG [r11_822_TrMRF]”: the “folding stability dG unfold” value is -0.546 ± 0.6 kcal/mol in data set [1], 0.141 ± 0.15 kcal/mol in data set [2] and 0.155 ± 0.42 kcal/mol in data set [3].
Take “SAGGSAGGSAGMWIDEDTIRRLAALLGYPGKVEVVRLEDGSLLVVVYGDTEPGVLLFPLDSAGGSAGGSAGG [r11_410_TrMRF]”: the “folding stability dG unfold” value in data set [1] turned out to be 2.255 ± 0.017 kcal/mol; in data set [2] it was 3.02 ± 0.079 kcal/mol; in data set [3] it was 2.59 ± 0.048 kcal/mol.
Taken in the same sequence, the figures for “SAGGSAGGSAGMYVITIKLPSGEVIKIKTDPKNPEEAIKKLEPQYPPAEFEVKEVPENEISAGGSAGGSAGG [r11_103_JUSTAS]” were -0.198 ± 0.26 kcal/mol, 0.633 ± 0.041 kcal/mol and 0.254 ± 0.18 kcal/mol.
On the same counts, the results for “SAGGSAGGSAGMYYVIKRPGKVEILPEEEVPKVIEEDPNVEVKKFDSEEEAKKALEELLKSAGGSAGGSAGG [r11_60_JUSTAS]” are 0.793 ± 0.073 kcal/mol, 0.539 ± 0.039 kcal/mol and 0.704 ± 0.058 kcal/mol.
With “SAGGSAGGSAGNIILPFEIESIDIEEETAIDPETGEPVKVKKILIRLKGTGKIIEISFTEKSAGGSAGGSAG [r3_424_TrMRF]”, the “folding stability dG unfold” value in data set [1] is 3.01 ± 0.11 kcal/mol; in data set [2] it was 2.76 ± 0.23 kcal/mol; in data set [3], 2.88 ± 0.26 kcal/mol.
Taken in the same sequence, the figures for “SAGGSAGGSAGNLKPVSGGGVLKVEVKDPNTDKKETYLVPPNKPDVVLELAKDGYEVEVSSAGGSAGGSAGG [r11_1006_TrMRF]” were 0.227 ± 0.14 kcal/mol, 0.938 ± 0.11 kcal/mol and 0.639 ± 0.14 kcal/mol.
Taken in the same sequence, the figures for “SAGGSAGGSAGNLKVVDISIWRTDDMRYIMFKLEGDGLTIMIWVPPKEPGKIQIMIFPLDSAGGSAGGSAGG [r11_1046_TrROS]” were 4.51 ± 0.1 kcal/mol, 3.49 ± 0.23 kcal/mol and 4.34 ± 0.16 kcal/mol.
On the same counts, the results for “SAGGSAGGSAGNMWDQALRAAREAKDQGDEEVVIHFPPNMKNWVKEWAEDLGWPIKIQPTSAGGSAGGSAGG [r11_371_TrROS]” are 0.027 ± 0.25 kcal/mol, 0.128 ± 0.17 kcal/mol and -0.0966 ± 0.19 kcal/mol.
In the case of “SAGGSAGGSAGNPNTPVIVKITLPGGKEITLEGTVSEAEEIVKKLEEEGHPFVEVEVYNRSAGGSAGGSAGG [r11_946_JUSTAS]”, the “folding stability dG unfold” value in data set [1] was -0.849 ± 0.3 kcal/mol; in data set [2], 0.422 ± 0.041 kcal/mol; in data set [3], 0.0762 ± 0.14 kcal/mol.
With “SAGGSAGGSAGNWKIKNIEPVRLPNNVHIMKFQIPGRSLIFVFDPKNGQKRWIPLKDIKPSAGGSAGGSAGG [r17_286_TrROS]”, the “folding stability dG unfold” value was -0.0752 ± 0.14 kcal/mol in data set [1], -0.301 ± 0.25 kcal/mol in data set [2] and -0.0705 ± 0.09 kcal/mol in data set [3].
On the same counts, the results for “SAGGSAGGSAGPEITVVKAPDEGYYYLIKLKVTYTLRDPETTAPLAEFEVEYYFLDRGSASAGGSAGGSAGG [r17_124_TrMRF]” are 4.91 ± 0.12 kcal/mol, 3.3 ± 0.28 kcal/mol and 4.58 ± 0.47 kcal/mol.
Take “SAGGSAGGSAGPENKNYMVMEMTIDIWIPLPPNAKVVFDPDEGKWKYVPIKIPIRIVMPWSAGGSAGGSAGG [r11_257_TrROS]”: the “folding stability dG unfold” value in data set [1] is 3.43 ± 0.12 kcal/mol; in data set [2], 2.91 ± 0.14 kcal/mol; in data set [3], 3.2 ± 0.15 kcal/mol.
Taken in the same sequence, the figures for “SAGGSAGGSAGPEVIEIKNPKTGKTYRIVRNKDGKLLIYNEATGKVAVFKDGKIELVPAPSAGGSAGGSAGG [r17_476_TrROS_Hall]” were 0.825 ± 0.21 kcal/mol, 1.14 ± 0.07 kcal/mol and 1.05 ± 0.16 kcal/mol.
For the sequence “SAGGSAGGSAGPEVRIELERDEDGRLRLRATFKLEDGKEVRVEVEFDLKTKKLTVKIEPVSAGGSAGGSAGG [r11_107_TrROS_Hall]”, the “folding stability dG unfold” value amounted to 4.8 ± 0.41 kcal/mol in data set [1], 3.83 ± 0.19 kcal/mol in data set [2] and 4.63 ± 0.39 kcal/mol in data set [3].
On the same counts, the results for “SAGGSAGGSAGPEWYVVMRVENPGTGKEVHFIGPWDDFKEKLPPSNVKMEWHLIPADALKSAGGSAGGSAGG [r11_334_TrROS]” are 0.666 ± 0.06 kcal/mol, 0.0887 ± 0.066 kcal/mol and 0.494 ± 0.061 kcal/mol.
As for “SAGGSAGGSAGPFKIEMTFIFKKDNEYYIAKIEIEISPDGYPKMKIEIKKVDINELENYFSAGGSAGGSAGG [r11_690_TrMRF]”, the “folding stability dG unfold” value in data set [1] was found to be 4.39 ± 0.14 kcal/mol; in data set [2], 2.52 ± 0.15 kcal/mol; in data set [3], 4.04 ± 0.4 kcal/mol.
On the same counts, the results for “SAGGSAGGSAGPFTIMVIERVPPDDPEYDKLHKDNGMPPENMIRIKIFRFKSPEQLKELFSAGGSAGGSAGG [r11_83_TrROS]” are 2.12 ± 0.06 kcal/mol, 1.82 ± 0.038 kcal/mol and 2.08 ± 0.086 kcal/mol.
